The DeepSol protein solubility set

Experiment: soluble on expression in E. coli; label from the status in PepcDB or PDB records

Row | Sequence | soluble on expression in E. coli
1 | MRYHGGLLLGAFDDDGKIIGMSFGYPGFRNGKLYLYSHMAGVVENKKYSNVGYSLKMKQRDLAASMGYDLIAWTFDPFNPLNAYFNISKLGAITRTYIKNFYGVMNDGINRGMRTDRVVAEWWINLQIDRNCEIIDFLNDVDRYSEISTIHESSCLGFYVPPDISYFHKYPDLGSKLKDAAFEVFNALFSKGYAIVAYKRGKSNYFVFKRIENLGKRIFDPIVK | not soluble
2 | MAAPDIKTIVNGINIKQSFAIQNQIRDGGDGELAKPRYQATVVWDSGYHTTSNVTDGQIIIGDEPVHYGGEGMGITPQDLLLTAVGHCLAASYIGGLSAAHINVESLHVHVSGRVNFRAAFAVEPGNPGFEDISVIVEIQTDAPQEQVTALLEKLKHMAPIPDTIMRPVPVNIEIRHQLK | not soluble
3 | MGSDKIHHHHHHMHISLGPLLYCWQKQQVTDFYQQVAASQIPLVYLGEAVCSRRREFKWGDYLELAQMLKQAGKEVVISTLALIEAPSEYTELKRQVDNGEFMVEANDMAAVYLANEHKLPFVCGASINNYNRASLDILQRFGMQRFVMPVELSKAWLSQVIQQKPSFEVEVLGHGYLPLAHSARCFTARHKQLTKDHCETVCREYSKGLVAQTQEQQPLLRLNGIQTQSASCLDLRSEITTMAKMGVDVFRVSPSSLDCIATANALVDAINTPENAQHFAISSDANLERTQCNGYWFGEAGLAVHANP | not soluble
4 | GPLGSMPGPAAGSRARVYAEVNSLRSREYWDYEAHVPSWGNQDDYQLVRKLGRGKYSEVFEAINITNNERVVVKILKPVKKKKIKREVKILENLRGGTNIIKLIDTVKDPVSKTPALVFEYINNTDFKQLYQILTDFDIRFYMYELLKALDYCHSKGIMHRDVKPHNVMIDHQQKKLRLIDWGLAEFYHPAQEYNVRVASRYFKGPELLVDYQMYDYSLDMWSLGCMLASMIFRREPFFHGQDNYDQLVRIAKVLGTEELYGYLKKYHIDLDPHFNDILGQHSRKRWENFIHSENRHLVSPEALDLLDKLLRYDHQQRLTAKEAMEHPYFYPVVKEQSQ | soluble
5 | MSLNQKDPVTDDITGGWYEQDIRQLAARGIMQGEGNGKYFPERLVTRAEFATLITRALQLPSGNAKFTDLEQVHPSLRDGINRAASAGIIRGRGDNTFDPNTTITREEAVIMIDRSLKHAGIFAKQVELPFVDQNLIYAKQEVQRVYGFGIVKGNEFNQFVPKGPSQRAHAAAFINRMLSVIEAEGHHHHHH | soluble
6 | MGSDKIHHHHHHVRLWIPHVTRPTVQPASSYATYSVMPGATVKELADLIGVSTTAVRDHLVHLQAEGMVEVTSERSGPGRPRLVYSLSEKAQKSFPKQYDRLISTLLRELIELEGEGKVEQLLDRVSQRLASEYADRMAGSDVAARLNELRALLEQRGVPAEIDPEGDVLRLFACPYYDVAADYPEVCSMERRMIEYVLGEKLVLEDTIRAGAHNCRFVLRPQDIPLTMTPPAADPTTEV | not soluble
7 | MGSDKIHHHHHHMTNGRILFIREREFARSNVINYGMALVATAASKAFSVRAIDNNGLYRLYSHDDIAAEVEHFRPDVIGLSIITANALTSYETAEMLKRRFPDIPILAGGLHVSHQVGEALESGIDYVVRGEADLTIVPLLSALVEARDRGMPPDFTGIAGVSHGRGEAFVDGGNATLPLNLDEHSDVDFGLYDLGDFYRHPRDSLAIGSVLTQRGCPFRCTFCSDQYLSQSVRYRSIARSVDEIEDKLDRFGVNIFNIRDADFTMHNERVVEFCNELIRRGLHNRINLTIETDSFRVIPRDTLALMKQSGFSSIGFGIERLTPEIQRRIKKNISRSRIMENLKNCRELGFVISVHCLIGFSFDTMEDIAREQALFDELADQYVDIVSASIVVACPGTSEFSAVPPERSSWYLNPSAFPSRRPLYQVVRRFQYDPRHVPIYDFPPGMMERMMDFRDHFRKKTIGKRGRPLLWAYLLMLQIARLSEALYAASPRLERATFGWTLDWLETLNAIFTKLWAKRNDDRVNANHSCGQTPQP | not soluble
8 | MFGFLRKSQPVPQPQEATSDTIATQHTSAPLSNDMMLLMAEEIPMLDSNSRVRVYEILEQYDGPTICSQEELPREIREMMDL | not soluble
9 | MSDRVIIAGGGIGGLASALTLHQIGVPCVVYEAAREMRPLGVGINLQPNAVRELLDLGITEADLDGVGLPAKEWALVGLNGNDIYAEPRGKAAGYRWPQYAVHRGRFHMLLNDKVIERLGADAVQLGRRVTSYRKTADGVVATVEHADGGTSEVSGALLIGADGIHSAVRAQMHPNQPPIHWGGAVMWRGTTWGKPTRSGASFIGLGTHRHRVVIYPISHPDPATGLSMLNWIAEVTLDNAEGWKQQGWFRQVPTSEFAHHFDGWVWDWLDVPAMIREADSAYENPMIDRDPVATWRDGPVVLIGDAAHAMYPTGSNGGTQAIVDARELGAAMVAHGATEAALAAFDAKLCGPISQLILRNRGAGPFGLLNLVDERCGGTFDNIDDVIPPAERAAFMAGYKAAAGFAIDHLNAAPPTIAPGARVKESAAALEHHHHHH | not soluble
10 | MSLSSVKDFPKIKAIRSFIIGGVGSGGDYHNVKGGHWLIDSDISTPASKWEQYKKSRTSWGINVLGSFLVEIEATDGTVGFATGFGGPPACWLVHQHFERFLIGADPRNTNLLFEQMYRASMFYGRKGLPIAVISVIDLALWDLLGKVRNEPVYRLIGGATKERLDFYCTGPEPTAAKAMGFWGGKVPLPFCPDDGHEGLRKNVEFLRKHREAVGPDFPIMVDCYMSLNVSYTIELVKACLDLNINWWEECLSPDDTDGFALIKRAHPTVKFTTGEHEYSRYGFRKLVEGRNLDIIQPDVMWLGGLTELLKVAALAAAYDVPVVPHASGPYSYHFQISQPNTPFQEYLANSPDGKSVLPVFGDLFIDEPIPTKGYLTTADLDKPGFGLTINPAARAKLIPSDYLFKVPEIPQNLSTGKEIKSNEQPDKPNGTLDSLAAKVESLTTSTSSEGHHHHHH | soluble
11 | MADNVAGNDRLIWIDLEMTGLDTDRDSIIEIATIVTDAQLNVLAEGPELAIAHSLETLEAMDEWNRNQHRRSGLWQRVLDSQVTHAQAEAQTVAFLGEWIRAGASPMCGNSICQDRRFLHRQMSRLERYFHYRNLDVSTIKELARRWAPAVASGFAKSSAHTALSDVRDSIDELRHYRQFMGTLGGDNGGGVQN | soluble
12 | MGSDKIHHHHHHMAIVRTVLGDITPDQAGSTLTHEHIRYAYPGCELDHRCVWDFDFVAEDVGKQFEEMREGCGIKTVVELTPPEIGRHPELFAQIARRSGMNIVATTGFFPEANAMGIPFHWRRQRKEDVVNMLIRDLTEGMIYDGQKTPYRAGILKAATGSLTAKTRTPVNEKGRRIGNVETHVISAIAAAQREVGCAINTHTQPLDYAVCNPGIELLDELEEGGADPTKVIIGHAFVHPNIDQLKAICERGASVQVDHIGIPWQNDSRAQLDELIAVAMCQLADLGHLDKLVVSYDKFFSHARGPVTEEEPEQLNELVPNDYIMTEFAPRLERKGFGARELHQVMVENPKRLLAF | not soluble
13 | MSLTEFLERNAALYGSEKCLTEINLDLQESHNVIWREYELIENNPAGEYRRDMTWKVFDEKANRFANLLIKRGIKKGDKVAILLMNCLEWLPIYFGILKAGAVAVPLNFRYTAEEIKYCLELSDSIALVFGPEFIGRIENIYDQIIPKIKLLLFAGENRPSFAESYDRLTANCPSEAPKVEITDDDDAAIYFSSGTTGFPKAILHAHRSLVSACYTEQKHHGQTREDNFLCIPPLYHTGAKMHWFGSLLSGSKAVLLRGIKPEWILRTVSEEKITIVWLLVPWAQDILDAIERGDVKLEDYDLSQWRLMHIGAQPVPPSLIRRWKKYFPHHLYDTNYGLSESAGPGCVHLGVENIHKVGAIGLPGYNWEAKIVDENGCPVKQGEVGELAVKGPGVMKCYYKDPEATAAVLKDGWLLTGDMARMDEDGFIYLVDRKKDVIISGGENIYPVQIEDFLRSHEAIKDAAVIGLPDKRLGEIAAAIIELKPGFECTEEEINKFCLVLPRYKRPRKIIFDKVPRNPTGKIEKPRLREKYGVVALVEAETEGHHHHHH | soluble
14 | MAHGFHASVMAITLDKITLTETTLTNPKAVEYQWVRTLYVQGYQPEAINHYIQTCFGGDETFADLFRRVAMHEESLYLLLQYLSCAPSSREF | soluble
15 | MGSDKIHHHHHHGIKNGLKEEPKINVGIKGGFNSSMYFTSRLELDGERMEDVQNNYKVGYFAAMFFRVHMKRHFIQPEIMYNIYKGEIAFNKNQNKENTLPELAKLNSTIHSLELPILYGYSFVKSRPYGMALFIGPKLEYVWKHKTSEEFEGFGYSGIKEELHPINISSVIGLGVNIANIFFDFRYEIGLTNISKSIIYKKDTDGIMSQEKGIFINRHRNVLSFSLGVIF | not soluble
16 | MIDVIEAGLFTTVQDGGRFGYRHAGVPAGGAMDAWAYRLANALVGNNGDEAVLEATIAGPTLRFRVEAVVAVCGGDFPCTLNGRTFALWKPMAVEPGDVLEVGVCRTGFRAYIAVSGGIDVPPVMGSRSTYVPAQLGGLSGRPLQRGDALPVGVTHGRRVIGRMRWGLASAARRYIGGKTKTVRAVPGPEYDEFTPASRRQFFAARYEVTTQSDRIGYRLSGPTLALVREREMVSEAVVFGTVQVPASGQPIVLMADSQTTGGYPRIAQVAAVDLPILAQARPGDFIQFQPIGPEEAMWLYKEQQQRLARWITAIRRQWEGER | not soluble
17 | MAHHHHHHMTGVASLHRESERSKRKSSGGERNADEADTEGTAGARNAHAKQKQKTVRQGVAVCVWCCGCLPALTARKQNKRERNVCSAPQALVARPHVTAPSARRSSRPLLMRAAGEAHRAVVMSVSVGVRVEQLGGKHTAPLTGRVQKKQLKEGRVEKKRTSTVIAPESKKEKGW | not soluble
18 | ALVELKVPDIGGHENVDIIAVEVNVGDTIAVDDTLITLETDKATMDVPAEVAGVVKEVKVKVGDKISEGGLIVVVEAEGTA | soluble
19 | MSNSYEGCGDLTIFVAVALNKVIGHKNQIPWPHITHDFRFLRNGTTYIPPEVLSKNPDIQNVVIFGRKTYESIPKASLPLKNRINVILSRTVKEVPGCLVYEDLSTAIRDLRANVPHNKIFILGGSFLYKEVLDNGLCDKIYLTRLNKEYPGDTYFPDIPDTFEITAISPTFSTDFVSYDFVIYERKDCKTVFPDPPFDQLLMTGTDISVPKPKYVACPGVRIRNHEEFQYLDILADVLSHGVLKPNRTGTDAYSKFGYQMRFDLSRSFPLLTTKKVALRSIIEELLWFIKGSTNGNDLLAKNVRIWELNGRRDFLDKNGFTDREEHDLGPIYGFQWRHFGAEYLDMHADYTGKGIDQLAEIINRIKTNPNDRRLIVCSWNVSDLKKMALPPCHCFFQFYVSDNKLSCMMHQRSCDLGLGVPFNIASYSILTAMVAQVCGLGLGEFVHNLADAHIYVDHVDAVTTQIARIPHPFPRLRLNPDIRNIEDFTIDDIVVEDYVSHPPIPMAMSA | soluble
20 | MNNNENQTLISGGTVVTPTTEIEKGTVAFSNGKIVSVEAESHDNPDIDATGKYVLPGLVDLHGDDIERHLFPRAEERVDTTIALDRCDIANASAGVTTKYHAISFEDVPDDNRSIELARRLAEQIRNFNYETGARVDNRLHMRCELTNEASVDAVSEEIKSGGDLVSLVTHVPGTGQFTGENTLAQRYDRSDGELETGLQSLKTRRSGVPEAELLARAREVTELASNRNMTVASHDDETVASVDNAAAIGVDISEYPLSHRVAQRATELNLTVAMGAPNVVRGGSLWDGPDASQAIKDGVVDILCSDFRPQSLLSSVFIENDEPLKDRVFRVSTAPAAAAGLYDRGRLECGARADIIIVDPDPSPSIARTYVAGDQVYCSA | not soluble
21 | MAHHHHHHMKNALFVNENMTILKIFYKDKLYMIKNKICGYQHDINENLVNNPHLLFLGRQEAWILILKCKEEAILQNCITATRYEEIRESEIERHDCVLGSLRK | not soluble
